KR20210010236A (dated 2021)

T1: Full-length(FL)-WRS, human tryptophanyl-tRNA synthetase (NP_004175.2) (human, UniProt P23381 2-471)
T1 construct: In the western blot and immunoprecipitation the target was endogenous WRS in lysates of human cells (HeLa, HCT116, HEK293F); also called Human WRS; TrpRS
T1 sequence: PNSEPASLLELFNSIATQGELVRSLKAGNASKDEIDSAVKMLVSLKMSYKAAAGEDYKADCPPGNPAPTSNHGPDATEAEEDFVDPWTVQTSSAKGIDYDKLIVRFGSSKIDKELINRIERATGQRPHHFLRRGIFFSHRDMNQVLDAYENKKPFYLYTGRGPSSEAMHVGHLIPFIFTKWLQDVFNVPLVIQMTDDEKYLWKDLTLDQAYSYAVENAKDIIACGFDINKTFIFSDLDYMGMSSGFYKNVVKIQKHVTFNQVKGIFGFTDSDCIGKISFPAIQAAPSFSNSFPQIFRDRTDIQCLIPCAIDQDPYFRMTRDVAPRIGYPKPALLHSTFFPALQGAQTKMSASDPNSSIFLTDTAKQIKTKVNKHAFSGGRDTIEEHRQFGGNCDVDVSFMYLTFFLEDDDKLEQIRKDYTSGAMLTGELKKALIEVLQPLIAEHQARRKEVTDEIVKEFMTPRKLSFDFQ

B1: 3C6 IgG 단일클론 항체 (anti-WRS(3C6) IgG) (antibody, V domains shown)
VH: EVQLLESGGGLVQPGGSLRLSCAASGFTFSSYDMSWVRQAPGKGLEWVSAISSGGSSIYYADSVKGRFTISRDNSKNTLYLQMNSLRAEDTAVYYCARDVAWDMLGDFDYWGQGTLVTVSS
VL: QSVLTQPPSASGTPGQRVTISCTGSSSNIGSNYVYWYQQLPGTAPKLLIYANSHRPSGVPDRFSGSKSGTSASLAISGLRSEDEADYYCGAWDDSLSAYVFGGGTKLTV
notes: The variable regions of the 3C6 scFv were converted to IgG (pcDNA3.4 vectors, expressed in HEK293F, purified on protein A); also called 3C6 IgG 항체; WRS(3C6) 항체
B2: 3C6 scFv (scFv)
scFv: EVQLLESGGGLVQPGGSLRLSCAASGFTFSSYDMSWVRQAPGKGLEWVSAISSGGSSIYYADSVKGRFTISRDNSKNTLYLQMNSLRAEDTAVYYCARDVAWDMLGDFDYWGQGTLVTVSSGGGGSGGGGSGGGGSQSVLTQPPSASGTPGQRVTISCTGSSSNIGSNYVYWYQQLPGTAPKLLIYANSHRPSGVPDRFSGSKSGTSASLAISGLRSEDEADYYCGAWDDSLSAYVFGGGTKLTV
notes: The scFv comes from an HA-tagged human scFv phage library; It was expressed in the E. coli periplasm, purified on Ni-NTA and detected with anti-HA-HRP; also called 3C6 scFv clone

Key:
[1] = molecular target: T1, Full-length(FL)-WRS, human …; assay: SPR (Biacore 2000), FL-WRS immobilised on a CM5 chip, antibody 6.25-100 nM as analyte
[2] = molecular target: T1, Full-length(FL)-WRS, human …; assay: cell-based or functional assay
[3] = molecular target: T1, Full-length(FL)-WRS, human …; assay: western blot on HeLa and HCT116 cell lysates, purified scFv detected with anti-HA-HRP

| Binder | Kd [1] [nM] | koff [1] [s⁻¹] | kon [1] [M⁻¹ s⁻¹] | EC 50 (inhibition of human WRS-induced TNF-α secretion by differentiated THP-1 macrophages) [2] [nM] | binding result [3] |
| --- | --- | --- | --- | --- | --- |
| B1 | 17.2 | 0.0011 | 64100 | 0.035 |  |
| B2 |  |  |  |  | binds |
